What all share (conditions): both partners purified
In experiment [1] the target is T1, NT-647-labelled CpxA-Strep reconstituted in nanodiscs (CpxA-ND), as used for MST (E. coli, UniProt P0AE82 1-457, NT-647 dye (NHS NT-647 labeling kit; typically one primary amine per protein, position statistical)).
T1 construct: CpxA sits in a lipid bilayer ringed by two MSP1D1 molecules (1:1 molar ratio of MSP to CpxA); also called labeled CpxA-Strep in nanodiscs; CpxA-Strep nanodiscs; source: E. coli BL21(DE3) pLysS, from pI1CpxA, purified (Strep-Tactin Superflow); labelled, then reconstituted into nanodiscs; not shown: Strep, C-terminal, kept
T1 sequence (looked up): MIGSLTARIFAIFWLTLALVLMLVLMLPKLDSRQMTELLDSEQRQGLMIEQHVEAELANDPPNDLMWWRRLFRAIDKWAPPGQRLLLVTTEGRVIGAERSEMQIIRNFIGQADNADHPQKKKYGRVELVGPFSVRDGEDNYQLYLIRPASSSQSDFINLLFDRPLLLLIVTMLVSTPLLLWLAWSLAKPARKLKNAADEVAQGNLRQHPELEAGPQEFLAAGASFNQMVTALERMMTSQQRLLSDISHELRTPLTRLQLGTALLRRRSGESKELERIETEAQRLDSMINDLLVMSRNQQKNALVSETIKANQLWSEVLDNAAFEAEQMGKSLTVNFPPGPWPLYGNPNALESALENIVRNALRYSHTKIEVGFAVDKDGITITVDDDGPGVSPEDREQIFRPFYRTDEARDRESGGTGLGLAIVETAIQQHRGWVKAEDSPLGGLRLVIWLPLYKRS
Put plainly: MST; as a3, with the non-hydrolysable ATP analogue AMP-PNP and MgCl2.

In experiment [2] the target is T1, NT-647-labelled CpxA-Strep …. Kind of experiment: MST; as a3, with ADP and MgCl2 (phosphatase-competent state mimicked).
Experiment [3] shares this target. Kind of experiment: MST; as a3, CpxA-Strep nanodiscs supplemented with 500 µM ATP and 5 mM MgCl2 before mixing with CpxR.
The target in experiment [4] is T2, phosphorylated CpxA in nanodiscs (CpxA-P-ND) (E. coli, UniProt P0AE82 1-457, phosphorylated (autophosphorylation with ATP and MgCl2); residue number not given).
T2 construct: As m1, phosphorylated; also called phosphorylated CpxA-P-ND; source: E. coli BL21(DE3) pLysS, purified; reconstituted into nanodiscs; phosphorylated by adding ATP and MgCl2 (2 mM Mg2+-ATP present)
T2 sequence (looked up): T1 sequence (looked up)
Kind of experiment: SPR; as a1, but CpxA-P-ND injected in the presence of 2 mM Mg2+-ATP; constants from Interaction Map analysis (peak assigned to phosphorylated CpxA). A general note: Surface plasmon resonance follows binding to a sensor surface in real time, without labels.

Experiment [5] has as its target T3, sensor histidine kinase CpxA reconstituted in nanodiscs (CpxA-ND), as used for SPR (E. coli, UniProt P0AE82 1-457).
T3 construct: CpxA sits in a lipid bilayer ringed by two MSP1D1 molecules whose His-tag was removed with TEV protease for SPR; one or two dimers per nanodisc; also called CpxA in nanodiscs; source: E. coli BL21(DE3) pLysS, purified from solubilised membranes; reconstituted into nanodiscs (MSP1D1, E. coli total lipid extract, beta-cyclodextrin)
T3 sequence (looked up): T1 sequence (looked up)
Put plainly: SPR; His6-CpxR (50 nM, about 300 RU) captured on an anti-His antibody chip; CpxA-ND or empty ND injected at 25-1000 nM; HBS (10 mM HEPES pH 7.4, 150 mM NaCl), 25 °C; constants from Interaction Map analysis of the sensorgrams.

Experiment [6] concerns the target T1, NT-647-labelled CpxA-Strep …. Put plainly: MST; NT-647-labelled CpxA-Strep in nanodiscs (or labelled MSP1D1 in empty nanodiscs) constant at 150 nM; unlabelled CpxR (0.007-237.5 µM) or CpxP (0.01-367.5 µM) titrated; HEPES-buffered saline (20 mM HEPES pH 7.5, 150 mM NaCl), RT; no nucleotide.

B1: response regulator CpxR, His6-tagged (His6-CpxR) (natural protein, E. coli, UniProt P0AE88 1-232, looked up)
chain: MNKILLVDDDRELTSLLKELLEMEGFNVIVAHDGEQALDLLDDSIDLLLLDVMMPKKNGIDTLKALRQTHQTPVIMLTARGSELDRVLGLELGADDYLPKPFNDRELVARIRAILRRSHWSEQQQNNDNGSPTLEVDALVLNPGRQEASFDGQTLELTGTEFTLLYLLAQHLGQVVSREHLSQEVLGKRLTPFDRAIDMHISNLRRKLPDRKDGHPWFKTLRGRGYLMVSAS
notes: CpxR, response regulator of the Cpx two-component system, E. coli; not shown: His6, N-terminal, kept
One may read the Kd as the concentration at which binding is half-saturated. For orientation: koff means the first-order rate constant of dissociation. In general, kon refers to a measure of how fast the partners come together. For the molecule B1, the Kd came to 110 ± 20 nM in experiment [1]; 1600 ± 300 nM in experiment [2]; 550 ± 60 nM in experiment [3]; 24.8 nM in experiment [4]; 236 nM in experiment [5]; 3700 ± 500 nM in experiment [6]. Moreover, the koff worked out at 4.38e-05 s⁻¹ in experiment [4] and 0.000473 s⁻¹ in experiment [5]. Besides, the kon in experiment [4] turned out to be 1760 M⁻¹ s⁻¹; in experiment [5] it was 2010 M⁻¹ s⁻¹.

B2: periplasmic accessory protein CpxP, His6-tagged (His6-CpxP) (natural protein, E. coli, UniProt P0AE85 22-166, looked up)
chain: AEVGSGDNWHPGEELTQRSTQSHMFDGISLTEHQRQQMRDLMQQARHEQPPVNVSELETMHRLVTAENFDENAVRAQAEKMANEQIARQVEMAKVRNQMYRLLTPEQQAVLNEKHQQRMEQLRDVTQWQKSSSLKLLSSSNSRSQ
notes: CpxP, periplasmic accessory protein of the Cpx two-component system, E. coli; The introduction says, citing other work, that CpxP acts as a homodimer
Regarding B2, in experiment [6], the Kd is more than 100000 nM.

Source of the values: publication PMC4755656, “Interaction Analysis of a Two-Component System Using Nanodiscs” (PLoS ONE, 2016).
